Measured values as given in PMC3791423.

Experiments:
PspA_(1–186) (E. coli) [1] = biological target: PspA_(1–186) (E. coli) (UniProt P0AFM6); assay: SEC; linked PspF_(1–275) dimers injected at 70 μM, without and with PspA_(1–186), no nucleotide, 4 °C, Yarra Sec-S3000 column; apparent oligomers
[2] = biological target: single-chain linked PspF_(1–275) WT/WT dimer (E. coli) (UniProt P37344); assay: as above
PspA_(1–186) (E. coli) [3] = biological target: PspA_(1–186) (E. coli) (UniProt P0AFM6)
[4] = biological target: single-chain linked PspF_(1–275) WT/W56A dimer (E. coli) (UniProt P37344); assay: SEC; linked PspF_(1–275) dimers injected at 70 μM, without and with PspA_(1–186), no nucleotide, 4 °C, Yarra Sec-S3000 column; apparent oligomers

Row | stoichiometry N (PspA (1–186) subunits per PspF hexamer) (PspA_(1–186) (E. coli) [1]) | stoichiometry N (PspF (1–275) subunits) [2] | Substance | reduction of RPO formation (supercoiled nifH promoter) in the presence of PspA (1–186) (PspA_(1–186) (E. coli) [3]) [%] | stoichiometry N (PspF (1–275) subunits) [4]
1 | 6 | 6 | single-chain linked PspF_(1–275) WT/WT dimer (from UniProt P37344 1-275; P37344 1-275) | 100 | –
2 | – | – | single-chain linked PspF_(1–275) WT/W56A dimer (from UniProt P37344 1-275; P37344 1-275) | 10 | 6
